# Test results: patent US6210671A, “Humanized antibodies reactive with L-selectin” (Protein Design Labs, Inc., priority 1995, dated 2001)
# Legend:
# [1] = tested on: binding of human neutrophils to stimulated human umbilical vein endothelial cells; details: Kishimoto et al., Blood 78:805 (1991); cited from earlier work
# [2] = tested on: binding of human neutrophils to IL-1 stimulated human umbilical cord endothelial cells (HUVEC); experiment: Adhesion of human neutrophils to IL-1 stimulated HUVEC; type: cell-based; details: HUVEC stimulated with 20 ng/ml IL-1β for 4 hr; 4° C., 30 min
# Procedure: FIG. 5A. Binding of human neutrophils to IL-1 stimulated human umbilical cord endothelial cells (HUVEC). The neutrophils were first treated with irrelevant control antibody, mouse DREG-200 antibody, or humanized IgG1 DREG-200 antibody, or left untreated, as indicated.
# The ability of the mouse and humanized DREG-200 antibodies to block the adhesion of human neutrophils to endothelial cells was determined using a modification of the assay method of Hallmann et al., Biochem. Biophys. Res. Comm. 174:236 (1991). Specifically, human umbilical cord endothelial cells (HUVEC; from Clonetics, San Diego) were grown to confluence in EGM medium (Clonetics) in Lab-Tek 8-chamber slides (Nunc, Naperville, Ill.). The HUVEC cells were stimulated with 20 ng/ml IL-1β (R&D Systems, Minneapolis, Minn.) for 4 hr before use. Neutrophils were isolated by density gradient centrifugation from buffy coats that had been cleared of erythrocytes by dextran sedimentation, and then adjusted to 10^7 per ml. The neutrophils (100 μl) were pre-incubated for 20 minutes on ice with varying concentrations of antibody (in 100 μl RPMI). The HUVEC slides were washed free of IL-1β and placed on a rotary shaker (100 rpm) at 4° C. […] Neutrophil adherence was quantified by counting the neutrophils attached to a defined area of the endothelial cell monolayer with a microscope.
# [3] = tested on: binding of human lymphocytes to peripheral lymph node high endothelial venules; details: Kishimoto et al.; cited from earlier work
# [4] = tested on: rabbit leukocytes; details: reported in the literature; cited from earlier work
# [5] = tested on: L-selectin; experiment: Flow cytometry binding to L1-2 L-selectin transfectants; details: 1 hour incubation; FITC-conjugated goat anti-human Ig
# Procedure: FIG. 8: Binding of humanized DREG-55 to L1-2^L-selectin transfectants compared to binding of control antibody as analyzed by flow cytometry. Fluorescence intensity is indicated on the x-axis.
# After washing, cells were incubated in a 1:250 dilution of FITC-conjugated goat anti-human Ig, washed, then analyzed for fluorescence by flow cytometry (FACS).
# [6] = tested on: binding of human PBMC to peripheral lymph node high endothelial venules; experiment: Adhesion of human PBMC to peripheral lymph node high endothelial venules; type: cell-based; details: frozen sections of mouse peripheral lymph nodes; 25 minutes
# Procedure: FIG. 10: Inhibition of binding of human PBMC to peripheral lymph node high endothelial venules by humanized DREG-55 (HuDREG-55) and humanized DREG-200 (HuDREG-200). The average number of cells bound per HEV for each antibody treatment is shown. Error bars show the standard errors of the values calculated for three sections.
# Human peripheral blood mononuclear cells were isolated and cultured for 2 days at 37° C. in 10% FBS/DMEM. After washing and resuspending in assay medium (5% FBS/DMEM/10 mM HEPES, pH 6.9) at 7×10^6 /ml in the presence of the indicated concentrations of humanized DREG-55, humanized DREG-200 or negative control antibody, cells were applied to frozen sections of mouse peripheral lymph nodes (PLN) while rotating at 50 rpm (as described in Streeter et al., Cell 107, 1853 (1988)). After 25 minutes, non-adherent cells were gently dumped and adherent cells fixed to sections by immersion in 1.5% glutaraldehyde-PBS. Slides were counterstained with thionine and the number of cells bound to each high endothelial venule (HEV) (n=60) in triplicate sections was determined microscopically. The average number of cells bound per HEV for each treatment was calculated.
# [7] = tested on: cat leukocytes; details: reported in the literature; cited from earlier work
# [8] = tested on: human L-selectin; experiment: Competitive binding of mouse and humanized DREG-200 antibodies against 125I-labeled mouse DREG-200 on transfected cells; details: competition with radio-iodinated mouse DREG-200; 1 hr at 4° C.
# Procedure: FIG. 4. Competitive binding of mouse and humanized IgG1 and IgG4 DREG-200 antibodies. The target cells were L2-1 cells, a mouse pre-B cell line, that was transfected with a human L-selectin gene and thus expresses human L-selectin (Berg et al., Biochem. Biophys. Res. Comm. 184:1048 (1992)). 5×10^5 cells were incubated with 3 ng of ^125 I-labeled tracer mouse antibody (2 μCi/μg), together with increasing amounts of mouse or humanized competitor antibody as indicated in 0.2 ml of binding buffer (PBS+2% FBS+0.1% azide) for 1 hr at 4° C. Cells were washed and pelleted, and their bound radioactivity measured. The concentrations of bound and free tracer antibody were calculated.
# The affinity of the humanized DREG-200 antibodies for L-selectin were determined by competition with the radio-iodinated mouse DREG-200 antibody (FIG. 4). The binding affinities were calculated according to the methods of Berzofsky (J. A. Berzofsky and I. J. Berkower, in Fundamental Immunology (ed. W. E. Paul), Raven Press (New York), 595 (1984), which is incorporated herein by reference in its entirety for all purposes).
# [9] = tested on: L-selectin; experiment: Competitive binding of mouse and humanized DREG-55 to CHO L-selectin cells; details: 2 hr at 4° C.
# Procedure: FIG. 9: Competitive binding of mouse and humanized DREG-55 antibodies to CHO^L-selectin cells expressing L-selectin. Increasing concentrations of cold competitor antibody were incubated with the cells in the presence of radiolabeled tracer humanized DREG-55 antibody, and the ratio of bound/free radioactivity was determined.
# The affinity of the humanized DREG-55 antibody for L-selectin was determined by competition with the radio-iodinated humanized DREG-55 antibody (FIG. 9). Purified humanized DREG-55 antibody was labeled with Na^125 I (Amersham, Arlington Heights, Ill.) using lactoperoxidase to 4 mCi/mg of protein (Marchalonis, Biochem. J. 113, 299 (1969)). CHO^L-selectin cells, which were obtained by transfecting the L-selectin genes into the host CHO cells, were used as a source for L-selectin. […] Cells were then washed and centrifuged, and their radioactivities measured. The ratio of bound and free tracer antibody were calculated. The binding affinities were calculated according to the methods of Berzofsky and Berkower (J. A. Berzofsky and I. J. Berkower, in Fundamental Immunology (ed. W. E. Paul), Raven Press (New York), p. 595 (1984), which is incorporated herein by reference).
Molecule,blocking of binding of human neutrophils to stimulated human umbilical vein endothelial cells [1],blocking of binding of human lymphocytes to peripheral lymph node high endothelial venules [3],adhesion of human PBMC to lymph node high endothelial venules [6],other results
mouse DREG-200: mouse monoclonal antibody that binds to human L-selectin (Kishimoto et al.); CDR donor [reference compound],partially or completely block,partially or completely block,–,blocking of binding of neutrophils to HUVEC [2]: effectively blocked; cross-reactivity with rabbit leukocytes [4]: cross-reactivity
"humanized DREG-55: humanized anti-L-selectin antibody, mouse DREG-55 CDRs in human Gal framework, sequences in FIG. 7 (antibody, V domains shown) VH: MNFGSSLIFLVLVLKGVQCEVQLVESGGGLVQPGGSLRLSCAASGFTFSTYAMSWVRQAPGKGLEWVASISTGGSTYYPDSVKGRFTISRDNAKNTLYLQMNSLRAEDTAVYYCARDYDGYFDYWGQGTLVTVSS VL: METDTILLWVLLLWVPGSTGDIQMTQSPSSLSASVGDRVTITCKASQSVDYDGDSYMNWYQQKPGKAPKLLIYAASNLESGIPSRFSGSGSGTDFTLTISSLQPEDFATYYCQQSNEDPWTFGQGTKVEIK",–,–,block adhesion,binding to L1-2 L-selectin transfectants by flow cytometry [5]: reacts
"humanized DREG-200: humanized anti-L-selectin antibody, mouse DREG-200 CDRs in human Eu framework, sequences in FIG. 2; isotype not stated at these places (antibody, V domains shown) VH: MGWSCIILFLVATATGVHSQVQLVQSGAEVKKPGSSVKVSCKASGYTFTSYVMHWVRQAPGQGLEWIGYIYPYNDGTKYNEKFKGRVTITSDESTNTAYMELSSLRSEDTAVYYCAREEYGNYVRYFDVWGQGTLVTVSS VL: MVFTPQILGLMLFWISASRGDIQMTQSPSTLSASVGDRVTITCKSSQSLLNSSNQKNYLAWYQQKPGKAPKLLVYFASTRESGVPDRFIGSGSGTDFTLTISSLQPEDFATYFCHQHYSTPLTFGQGTKVEVK",–,–,block adhesion,cross-reactivity with cat leukocytes [7]: cross-reactivity; affinity relative to the mouse DREG-200 antibody [8]: ≤ 2 fold
"mouse DREG-55: mouse monoclonal antibody that binds to human L-selectin (Kishimoto et al.); CDR donor (antibody, V domains shown) VH: MNFGSSLIFLVLVLKGVQCEVKLVESGGGLVKPGGSLKLACAASGFTFSTYAMSWVRQTPEKRLEWVASISTGGSTYYPDSVKGRFTISRDNARNILYLQMSSLRSEDTAMYYCARDYDGYFDYWGQGTTLTVSS VL: METDTILLWVLLLWVPGSTGDIVLTQSPASLSVSLGERASISCKASQSVDYDGDSYMNWYQQKPGQPPKLLIYAASNLESGIPARFSGSGSGTDFTLNIHPVEEEDAATYYCQQSNEDPWTFGGGTKLEIK",partially or completely block,partially or completely block,–,affinity for L-selectin compared with humanized DREG-55 [9]: no significant difference
